Data reported in PMC7672075.
Where no end group is shown, it is not given here. [ ]: non-standard residue; d: D form. pS = N[C@@H](COP(=O)(O)O)C(=O)O

How the values were obtained:
[1] = biological target: TRF2^TRFH (TRF Homology domain of human TRF2, residues 42–245) (human); experiment: ITC; MCPH1^TBM peptides at 1.0 mM in the syringe titrated into TRF2^TRFH at 0.1 mM in the sample cell; 20 °C; 25 mM Tris-HCl pH 8.0, 150 mM NaCl
[2] = biological target: TRF2, endogenous (U2OS) (human (endogenous in U2OS)) (UniProt Q15554)
Sequence of UniProt Q15554 (Q15554 whole entry): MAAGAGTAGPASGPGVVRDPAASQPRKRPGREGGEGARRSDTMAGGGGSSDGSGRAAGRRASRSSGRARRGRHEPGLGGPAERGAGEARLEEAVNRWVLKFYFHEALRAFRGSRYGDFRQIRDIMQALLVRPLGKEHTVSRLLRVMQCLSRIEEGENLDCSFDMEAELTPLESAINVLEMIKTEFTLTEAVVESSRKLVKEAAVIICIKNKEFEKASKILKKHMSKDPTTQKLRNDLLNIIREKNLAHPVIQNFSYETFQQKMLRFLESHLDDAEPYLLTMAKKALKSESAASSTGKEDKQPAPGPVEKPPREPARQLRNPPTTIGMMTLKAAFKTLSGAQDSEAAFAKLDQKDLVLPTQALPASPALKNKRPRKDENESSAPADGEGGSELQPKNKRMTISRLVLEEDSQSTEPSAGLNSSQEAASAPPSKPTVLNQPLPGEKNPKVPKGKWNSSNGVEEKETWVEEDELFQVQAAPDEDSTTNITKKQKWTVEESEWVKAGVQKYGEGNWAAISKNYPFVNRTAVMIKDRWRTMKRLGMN

Binder	Kd [1] [µM]	percentage of HeLa cells with >5 FLAG-MCPH1 foci at telomeres (immunostaining and telomere PNA-FISH), functional telomeres [2]
SQETFEEKYRLSPTLSSTKGH [MCPH1^TBM peptide, wild type, synthetic]	0.24	
FLAG-tagged WT MCPH1 (human) (natural protein) MAAPILKDVVAYVEVWSSNGTENYSKTFTTQLVDMGAKVSKTFNKQVTHVIFKDGYQSTWDKAQKRGVKLVSVLWVEKCRTAGAHIDESLFPAANMNEHLSSLIKKKRKCMQPKDFNFKTPENDKRFQKKFEKMAKELQRQKTNLDDDVPILLFESNGSLIYTPTIEINSRHHSAMEKRLQEMKEKRENLSPTSSQMIQQSHDNPSNSLCEAPLNISRDTLCSDEYFAGGLHSSFDDLCGNSGCGNQERKLEGSINDIKSDVCISSLVLKANNIHSSPSFTHLDKSSPQKFLSNLSKEEINLQRNIAGKVVTPDQKQAAGMSQETFEEKYRLSPTLSSTKGHLLIHSRPRSSSVKRKRVSHGSHSPPKEKCKRKRSTRRSIMPRLQLCRSEDRLQHVAGPALEALSCGESSYDDYFSPDNLKERYSENLPPESQLPSSPAQLSCRSLSKKERTSIFEMSDFSCVGKKTRTVDITNFTAKTISSPRKTGNGEGRATSSCVTSAPEEALRCCRQAGKEDACPEGNGFSYTIEDPALPKGHDDDLTPLEGSLEEMKEAVGLKSTQNKGTTSKISNSSEGEAQSEHEPCFIVDCNMETSTEEKENLPGGYSGSVKNRPTRHDVLDDSCDGFKDLIKPHEELKKSGRGKKPTRTLVMTSMPSEKQNVVIQVVDKLKGFSIAPDVCETTTHVLSGKPLRTLNVLLGIARGCWVLSYDWVLWSLELGHWISEEPFELSHHFPAAPLCRSECHLSAGPYRGTLFADQPAMFVSPASSPPVAKLCELVHLCGGRVSQVPRQASIVIGPYSGKKKATVKYLSEKWVLDSITQHKVCAPENYLLSQ		11 % of cells
FLAG-MCPH1^S333A (natural protein) MAAPILKDVVAYVEVWSSNGTENYSKTFTTQLVDMGAKVSKTFNKQVTHVIFKDGYQSTWDKAQKRGVKLVSVLWVEKCRTAGAHIDESLFPAANMNEHLSSLIKKKRKCMQPKDFNFKTPENDKRFQKKFEKMAKELQRQKTNLDDDVPILLFESNGSLIYTPTIEINSRHHSAMEKRLQEMKEKRENLSPTSSQMIQQSHDNPSNSLCEAPLNISRDTLCSDEYFAGGLHSSFDDLCGNSGCGNQERKLEGSINDIKSDVCISSLVLKANNIHSSPSFTHLDKSSPQKFLSNLSKEEINLQRNIAGKVVTPDQKQAAGMSQETFEEKYRLAPTLSSTKGHLLIHSRPRSSSVKRKRVSHGSHSPPKEKCKRKRSTRRSIMPRLQLCRSEDRLQHVAGPALEALSCGESSYDDYFSPDNLKERYSENLPPESQLPSSPAQLSCRSLSKKERTSIFEMSDFSCVGKKTRTVDITNFTAKTISSPRKTGNGEGRATSSCVTSAPEEALRCCRQAGKEDACPEGNGFSYTIEDPALPKGHDDDLTPLEGSLEEMKEAVGLKSTQNKGTTSKISNSSEGEAQSEHEPCFIVDCNMETSTEEKENLPGGYSGSVKNRPTRHDVLDDSCDGFKDLIKPHEELKKSGRGKKPTRTLVMTSMPSEKQNVVIQVVDKLKGFSIAPDVCETTTHVLSGKPLRTLNVLLGIARGCWVLSYDWVLWSLELGHWISEEPFELSHHFPAAPLCRSECHLSAGPYRGTLFADQPAMFVSPASSPPVAKLCELVHLCGGRVSQVPRQASIVIGPYSGKKKATVKYLSEKWVLDSITQHKVCAPENYLLSQ		48 % of cells
SQETFEEKYRLDPTLSSTKGH [MCPH1^TBM peptide S333D, synthetic]	21	
SQETFEEKYRL[pS]PTLSSTKGH (also: phosphoserine at S333, position in peptide not given here) [MCPH1^TBM peptide phosphorylated at S333, synthetic]	79	
SQETFEEKYRLEPTLSSTKGH [MCPH1^TBM peptide S333E, synthetic]	14	
SQETFEEKYRLSATLSSTKGH [MCPH1^TBM peptide P334A, synthetic]	24	
SQETFEEKYRLAPTLSSTKGH [MCPH1^TBM peptide S333A, synthetic]	0.16	
